One experiment concerns the target SARS-CoV 假病毒 S蛋白 (SARS-CoV, UniProt P59594 14-1255). The experiment can be described thus: cell-based or functional assay.
A further experiment has as its target RaTG13 假病毒 S蛋白 (sarbecovirus RaTG13). The experiment is described as follows: cell-based or functional assay.
Experiment [1] addresses SARS-CoV-2 Prototype(PT)假病毒 S蛋白 (SARS-CoV-2 (Prototype), UniProt P0DTC2 14-1273). The experiment is described as follows: cell-based or functional assay.
Another experiment has as its target WIV1 假病毒 S蛋白 (sarbecovirus WIV1). The experiment can be described thus: cell-based or functional assay.
The target in a further experiment is GD/1/2019 假病毒 S蛋白 (sarbecovirus GD/1/2019). The experiment is described as follows: cell-based or functional assay.
The next experiment deals with SARS-CoV RBD蛋白 (SARS-CoV, UniProt P59594 306-527). The experiment is described as follows: SPR, Biacore 8K; 74 captured on protein A chip, RBD as analyte.
The target of experiment [2] is T1, SARS-CoV-2 Prototype株(PT)RBD蛋白 (SARS-CoV-2 (Prototype), UniProt P0DTC2 319-541).
T1 construct: domain: RBD
The description is as above.

In general, Kd refers to a measure of binding affinity in units of concentration. Higher therefore signals weaker binding. Usually koff stands for the rate constant with which the complex falls apart. Low values mean a long-lived complex, high ones a short-lived complex. By kon is commonly meant a measure of how fast the partners come together. Low readings indicate slow association, high ones fast association.

Some results are limits rather than exact numbers.

B1: 沙贝病毒广谱人源中和抗体74 (antibody, V domains shown)
VH: QVQLVQSGAQLKKPGESLKISCKGSGYNFSRYWIAWVRHMPGKGLEVMGIIYPDDSDTRYSPSVRGQVTISADKSTSIVYLQWSSLKASDTGIYYCARFGAGMTGMPRYFDTTRWFDPWGQGTQVTVSS
VL: QSVLTQPPSVSGAPGQRVTISCLGGSSNIGAGYDVHWYQHLPGAAPKLLISGNSNRPSGVPARFSGSKSGTSASLAITGLQAEDEADYYCQSYDNDLSQVFGGGTKLTVLG
On to B1, for which the “IC50, 假病毒中和” value is 0.041 µg/mL with SARS-CoV 假病毒 S蛋白; above 100 µg/mL with RaTG13 假病毒 S蛋白; 0.95 µg/mL in experiment [1]; 0.14 µg/mL with WIV1 假病毒 S蛋白; 0.0028 µg/mL in the experiment with GD/1/2019 假病毒 S蛋白. The Kd with SARS-CoV RBD蛋白 is below 6.06 pM; in experiment [2], below 15.6 pM. Moreover, the results for the koff (in the experiment with SARS-CoV RBD蛋白; in experiment [2]) were 6.47e-06 s⁻¹ and 9.52e-08 s⁻¹, respectively. Further, the results for the on-rate (kon) (with SARS-CoV RBD蛋白; in experiment [2]) were 1.65e+06 M⁻¹ s⁻¹ and 640000 M⁻¹ s⁻¹, respectively.

The record behind these values is CN115850461A (INST MICROBIOLOGY CAS, dated 2023).
